# Reference: US20090075925A1 (published 2009)
# T1: rat APOBEC-1 (endogenous, rat liver nuclear extract and McArdle cells) (rat)
# T1 sequence (P38483 1-229, looked up): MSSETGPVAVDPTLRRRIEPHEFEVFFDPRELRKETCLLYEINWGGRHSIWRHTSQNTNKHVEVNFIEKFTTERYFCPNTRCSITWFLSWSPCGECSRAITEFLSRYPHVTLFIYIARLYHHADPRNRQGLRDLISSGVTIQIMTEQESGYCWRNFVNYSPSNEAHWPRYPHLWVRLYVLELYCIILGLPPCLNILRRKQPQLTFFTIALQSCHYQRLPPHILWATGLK
# B1: ACF of nuclear extract treated with calf intestinal alkaline phosphatase (CIAP) (other, rat, UniProt Q923K9-2 1-586, looked up)
# chain: MESNHKSGDGLSGTQKEAALRALVQRTGYSLVQENGQRKYGGPPPGWDTTPPERGCEIFIGKLPRDLFEDELIPLCEKIGKIYEMRMMMDFNGNNRGYAFVTFSNKQEAKNAIKQLNNYEIRNGRLLGVCASVDNCRLFVGGIPKTKKREEILSEMKKVTEGVVDVIVYPSAADKTKNRGFAFVEYESHRAAAMARRRLLPGRIQLWGHPIAVDWAEPEVEVDEDTMSSVKILYVRNLMLSTSEEMIEKEFNSIKPGAVERVKKIRDYAFVHFSNREDAVEAMKALNGKVLDGSPIEVTLAKPVDKDSYVRYTRGTGGRNTMLQEYTYPLSHVYDPTTTYLGAPVFYTPQAYAAIPSLHFPATKGHLSNRALIRTPSVRGAAGVRGLGGRGYLAYTGLGRGYQVKGDKRQDKLYDLLPGMELTPMNTISLKPQGVKLAPQILEEICQKNNWGQPVYQLHSAIGQDQRQLFLYKVTIPALASQNPAIHPFTPPKLSAYVDEAKRYAAEHTLQTLGIPTEGGDAGTTAPTATSATVFPGYAVPSATAPVSTAQLKQAVTLGQDLAAYTTYEVYPTFAVTTRGDGYGTF
# modifications: phosphates removed by CIAP treatment of the extract
# B2: HA epitope-tagged APOBEC-1 stably expressed in McArdle RH7777 cells (enzyme, UniProt P38483 1-229, looked up, not shown: small tags and cut ends)
# chain: T1 sequence (P38483 1-229, looked up)
# notes: also called HA-tagged APOBEC-1
# Experiments:
# [1] = target: T1, rat APOBEC-1 (endogenous, rat liver …); assay: cell-based or functional assay
# [2] = target: B1; assay: co-immunoprecipitation with ACF CT antibody from CIAP-treated McArdle nuclear extract, anti-HA western blot, densitometry (FIG. 2A)
# Protocol: Control extracts were treated similarly but lacked phosphatase. […] (n=4, standard deviation+/−0.2). […] Data shown is representative of 3 independent experiments. *Statistical significance was determined to be P≦0.01 by unpaired t-test relative to control. […] Quantitation of relative amounts of ACF bound was performed using PhoshorImager scanning densitometry.
fold reduction of APOBEC-1 recovered with immunoprecipitated ACF (CIAP-treated against control nuclear extract) [2] [fold],Binder,fold decrease in in vitro ApoB mRNA editing activity of CIAP-treated nuclear extract (poisoned-primer extension) [1] [fold]
–,B1,2.5
3,B2,–
